What all share (test): AUC
The target of assay [1] is bH1 Fab variant Y^H33-M^H98-G^H99-S^L30b.
In assay [2] the target is bH1 Fab variant Y^H33-F^H98-G^H99-S^L30b.
The target of assay [3] is bH1 Fab variant W^H33-M^H98-D^H99-R^L30b.
Assay [4] has as its target bH1 Fab variant W^H33-W^H98-D^H99-R^L30b.
The target of assay [5] is bH1 Fab variant Y^H33-W^H98-G^H99-S^L30b.
For assay [6], the target named is bH1 Fab variant Y^H33-M^H98-M^H99-S^L30b.
The target of assay [7] is bH1 Fab variant W^H33-W^H98-G^H99-S^L30b.
The target in assay [8] is bH1 Fab variant Y^H33-D^H98-G^H99-R^L30b.
Assay [9] concerns the target bH1 Fab variant W^H33-D^H98-G^H99-S^L30b.

With “bH1 Fab variant Y^H33-M^H98-G^H99-S^L30b”, in assay [1], the Kd (commonly a measure of binding affinity in units of concentration) is 179 mM and the dimer % at 1 mg/mL was 1.4%.
Consider “bH1 Fab variant Y^H33-F^H98-G^H99-S^L30b”, for which, in [2], the Kd came to 1.29 mM and the dimer % at 1 mg/mL came to 1%.
Substance “bH1 Fab variant W^H33-M^H98-D^H99-R^L30b” gave a Kd in [3] of 3.98 mM.
Regarding “bH1 Fab variant W^H33-W^H98-D^H99-R^L30b”, in [4], the Kd is 1.33 mM and the dimer % at 1 mg/mL is 1.2%.
In assay [5], “bH1 Fab variant Y^H33-W^H98-G^H99-S^L30b” came in with a Kd of 5.73 mM and a dimer % at 1 mg/mL of 2.8%.
“bH1 Fab variant Y^H33-M^H98-M^H99-S^L30b” returned a Kd in [6] of 19.9 mM.
In [7], “bH1 Fab variant W^H33-W^H98-G^H99-S^L30b” gave a dissociation constant Kd of 2.68 mM and a dimer % at 1 mg/mL of 1.4%.
In turn, “bH1 Fab variant Y^H33-D^H98-G^H99-R^L30b” had a Kd in assay [8] of 8.94 mM.
In assay [9], “bH1 Fab variant W^H33-D^H98-G^H99-S^L30b” came in with a Kd of 1470 mM and a dimer % at 1 mg/mL of 1.2%.

(Values after publication PMC6748613.)
